According to PMC5758903:

Assays:
HisTag-PCNA [1] = biological target: T1, HisTag-PCNA (human, UniProt P12004 1-261); assay: pull-down
HisTag-PCNA [2] = biological target: T1, HisTag-PCNA; assay: ITC
HisTag-PCNA [3] = biological target: T1, HisTag-PCNA; assay: pull-down titration
DNA polymerase delta = DNA polymerase delta (human, UniProt P28340;P49005;Q15054;Q9HCU8 1-1107;1-469;1-466;1-107); assay: EMSA
[4] = biological target: PCNA (tag-free);DNA polymerase delta (human;human, UniProt P12004;P28340;P49005;Q15054;Q9HCU8 1-261;1-1107;1-469;1-466;1-107, |); assay: EMSA

T1 sequence (P12004 whole entry): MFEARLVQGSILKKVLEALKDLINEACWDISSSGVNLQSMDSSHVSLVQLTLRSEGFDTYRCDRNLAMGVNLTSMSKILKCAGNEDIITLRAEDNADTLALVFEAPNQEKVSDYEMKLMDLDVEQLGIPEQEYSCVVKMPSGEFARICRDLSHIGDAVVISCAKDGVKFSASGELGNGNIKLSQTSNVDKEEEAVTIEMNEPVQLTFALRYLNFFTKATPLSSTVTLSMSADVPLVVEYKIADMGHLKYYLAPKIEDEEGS
Chain of DNA polymerase delta (P28340 whole entry, stated change not applied, chain 1 of 4): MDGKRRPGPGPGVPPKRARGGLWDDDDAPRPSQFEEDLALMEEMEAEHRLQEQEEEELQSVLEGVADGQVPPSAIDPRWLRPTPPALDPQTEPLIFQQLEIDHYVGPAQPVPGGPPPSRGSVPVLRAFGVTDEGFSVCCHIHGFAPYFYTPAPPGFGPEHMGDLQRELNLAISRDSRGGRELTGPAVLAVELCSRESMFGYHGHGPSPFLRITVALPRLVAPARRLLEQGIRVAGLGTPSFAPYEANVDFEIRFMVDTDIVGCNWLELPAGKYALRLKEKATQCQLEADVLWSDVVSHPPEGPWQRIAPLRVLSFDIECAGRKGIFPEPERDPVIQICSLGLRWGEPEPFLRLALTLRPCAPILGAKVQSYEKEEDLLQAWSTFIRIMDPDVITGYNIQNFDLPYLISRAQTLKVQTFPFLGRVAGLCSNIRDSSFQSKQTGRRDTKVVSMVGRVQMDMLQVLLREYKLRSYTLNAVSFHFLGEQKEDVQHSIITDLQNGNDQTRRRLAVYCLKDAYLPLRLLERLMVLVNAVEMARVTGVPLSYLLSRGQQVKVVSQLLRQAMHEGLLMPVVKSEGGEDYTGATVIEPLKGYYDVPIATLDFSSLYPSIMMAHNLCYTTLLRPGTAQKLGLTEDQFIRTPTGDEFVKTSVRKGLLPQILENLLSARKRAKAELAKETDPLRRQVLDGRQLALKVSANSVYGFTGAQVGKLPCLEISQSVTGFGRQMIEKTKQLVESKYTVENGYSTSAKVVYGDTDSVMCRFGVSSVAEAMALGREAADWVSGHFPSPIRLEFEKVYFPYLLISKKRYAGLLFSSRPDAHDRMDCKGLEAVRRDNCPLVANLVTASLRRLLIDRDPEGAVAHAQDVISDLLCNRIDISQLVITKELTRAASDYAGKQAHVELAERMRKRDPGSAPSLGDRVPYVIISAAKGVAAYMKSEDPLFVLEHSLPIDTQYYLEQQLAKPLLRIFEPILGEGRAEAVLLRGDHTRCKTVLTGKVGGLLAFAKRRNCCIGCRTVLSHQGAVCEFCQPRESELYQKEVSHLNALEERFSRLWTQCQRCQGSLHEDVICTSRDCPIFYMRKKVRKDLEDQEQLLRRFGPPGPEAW
Chain of DNA polymerase delta (P49005 whole entry, stated change not applied, chain 2 of 4): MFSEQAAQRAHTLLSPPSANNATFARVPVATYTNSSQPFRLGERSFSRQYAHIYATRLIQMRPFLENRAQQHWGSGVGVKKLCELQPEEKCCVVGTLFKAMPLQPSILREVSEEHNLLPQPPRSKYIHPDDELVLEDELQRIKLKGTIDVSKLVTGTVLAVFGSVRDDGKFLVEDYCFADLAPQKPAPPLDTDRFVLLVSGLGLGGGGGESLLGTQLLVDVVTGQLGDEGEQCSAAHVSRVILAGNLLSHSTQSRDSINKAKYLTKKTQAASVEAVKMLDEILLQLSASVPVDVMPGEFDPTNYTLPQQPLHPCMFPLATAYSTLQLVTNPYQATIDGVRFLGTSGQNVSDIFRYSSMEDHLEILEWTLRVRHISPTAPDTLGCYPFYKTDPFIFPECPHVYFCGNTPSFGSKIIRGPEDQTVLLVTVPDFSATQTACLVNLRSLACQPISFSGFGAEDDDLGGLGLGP
Chain of DNA polymerase delta (Q15054 whole entry, stated change not applied, chain 3 of 4): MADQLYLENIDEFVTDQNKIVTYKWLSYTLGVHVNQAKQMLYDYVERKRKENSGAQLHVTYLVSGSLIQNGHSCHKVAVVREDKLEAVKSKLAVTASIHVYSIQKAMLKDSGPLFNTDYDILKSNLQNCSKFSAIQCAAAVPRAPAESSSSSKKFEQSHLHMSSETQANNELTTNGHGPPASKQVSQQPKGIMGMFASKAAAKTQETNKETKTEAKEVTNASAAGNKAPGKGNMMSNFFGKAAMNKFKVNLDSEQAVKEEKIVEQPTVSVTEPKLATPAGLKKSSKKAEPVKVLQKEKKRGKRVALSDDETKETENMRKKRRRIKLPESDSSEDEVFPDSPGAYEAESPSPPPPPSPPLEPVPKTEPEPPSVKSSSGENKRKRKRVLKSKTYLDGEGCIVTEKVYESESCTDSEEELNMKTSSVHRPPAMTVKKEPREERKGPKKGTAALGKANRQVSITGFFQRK
Chain of DNA polymerase delta (Q9HCU8 whole entry, stated change not applied, chain 4 of 4): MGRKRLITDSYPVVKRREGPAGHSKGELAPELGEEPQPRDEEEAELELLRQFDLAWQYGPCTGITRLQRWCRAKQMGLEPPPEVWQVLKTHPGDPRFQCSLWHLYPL

Binder	binding result (HisTag-PCNA [1])	Kd (HisTag-PCNA [2])	Kd (HisTag-PCNA [3])	binding result (DNA polymerase delta)	binding result [4]
A1 -20/5' (structured_DNA) DNA: CCTATGGTCCCCGCGTAGGTGGCAGCTCAAACCCGATTCGAGGAACATGCGTCGCAAAC	no binding				
CATGCTTCCCCAGGGAGATGCCTATGGTCCCCGCGTAGG (structured_DNA) [A1 -40/3']	no binding				
CATGCTTCCCCAGGGAGATGCCTATGGTCCCCGCGTAGGTGGCAGCTCA (structured_DNA) [alpha-PCNA aptamer (A1 -30/3')]		2 ± 0.64 µM	5.1 ± 0.59 µM	no binding	binds
Ref aptamer (ssDNA) DNA: ACTGACTGACTGACTGACTGACTGACTGACTGACTGACTGACTGACTGACTGACTGACTGACTGACTGACTGACTGACT	no binding				
